For data set [1], the target named is cellular fibronectin (human). Briefly: MST; RED-NHS labeled cFn at 50 nM mixed with 16 concentrations (92 pM-3 uM) of the unlabeled protein; 637 mM NaCl, 2.7 mM KCl, 10 mM Na2HPO4, 1.8 mM KH2PO4, pH 7.4; 22-23°C; Monolith NT.115, MST power 40%, excitation 20%; triplicate; single-site dose-response model.
In data set [2] the target is cellular fibronectin (human). The data set is described as above. The source holds these as a separate data set.
Data set [3] deals with the molecule itself. Nature of the data set: crystal structure; dimeric SEC fraction of C-terminally His-tagged CshB_NR2; sitting drop, 20°C, 0.1 M SPG buffer pH 5, 25% w/v PEG 1500; molecular replacement with 5L2D; 1.4 Å.

Like-named read-outs stand apart in the source and are kept apart here.

The term Kd denotes the constant that tells how readily two partners part at equilibrium. High values mean lower affinity, low ones higher affinity. For the molecule “CshB_NR2 (NR2 domain of CshB), N-terminally hexa-histidine-tagged variant (from UniProt A8AXC5 211-528) (domain or fragment)”, the Kd in data set [1] was determined as 530 nM.

B1: CshA_NR2 (NR2 domain of cell surface hydrophobicity protein A), wild type (domain or fragment)
chain: WVDFSDTASMKNLDPQGGFKVGTVFKKEISPGYVVTLTVTELKPFNSTEIYKKRVEGTPTANTYDPNAINSYLKGYKDYGKTPPSVTGRPQNKFSTIGGQGFDTQGRKTQIILPDDAVNWGIKFKVEATYRGNPVKPSVVMADGEDANPAEYGIFTTNGEGWEYVGEWMKGPRAKGPYTVMTEDMVKAFDKTRKDGLLILKDKSVDWSKYLSPDTVTGGLGSQVFGPIISASKAVPVVMTRGASEVGFYVATGGQQALMMGFLVVDSSDAPASYGEAYHTIGTRDSIANTPINQPYLGSTAADIDADSESDWTADDRE
The molecule B1 gave a Kd in data set [2] of 302 nM.

B2: CshB_NR2 (NR2 domain of CshB), C-terminally hexa-histidine-tagged variant, dimeric form (domain or fragment)
chain: WLDFSDSASWKNLDQRGGLKVGTTFTKEISPGYVVTLTVKELKPFNSTEIYKKRVAGTATEGTYNPDAENGFLTSAPYYGKTPPPSVTGAAQNEWTTIRDQGFNTQKRKTQLVYPMNSTNWGVKFDIEATYLGKRVAPTVVMADGEDANPGEFAIFTTNGTGWEYMGEWKMKSPAKEAYTVITKKMLDDEDVKRRGLLILKDKSVDWYKYLSPDTVTGGLGSQVFGPNRSNERTVPVVMTRGASEVGFYVASSGQQAMMMGFLVVDVSDAPESYGEAFHTISTRDSVTNDPINQPYLGTTPADIDVESSNDWVLDDKK
notes: CshB, Streptococcus gordonii DL1, NR2 domain, residues 211-528 of the full-length CshB polypeptide; amplified from chromosomal DNA, in pOPINE; Used for crystallization; Only the dimeric SEC fraction crystallised
Usually stoichiometry N stands for a count of units in the complex or per binding partner. Regarding B2, in data set [3], the “stoichiometry N” value came to 2.

These data come from PMC10952558, “Domain shuffling of a highly mutable ligand‐binding fold drives adhesin generation across the bacterial kingdom” (Proteins, 2023).
